Experimental data reported in US20040022780A1, “Serine protease and topical retinoid compositions useful for treatment of acne vulgarise and production of anti-aging effects” (priority 1997, published 2004).

Key:
[1] = tested on: utriculi of Rhino mouse skin; assay: Rhino mouse utriculus size reduction (whole mount epidermis image analysis); format: in vivo; conditions: for Utriculus Size Reduction (%) vs. Liposome Control: topical once daily for five days, sacrificed day 8
Text: The Rhino mouse has been used as an experimental acne model to screen topically active comedolytic and antikeratinizing agents as described in Sundberg, J. P., “The Hairless and Rhino Mutations, Chromosome 14,” Handbook of Mouse Mutations With Skin and Hair Abnormalities 291-312 (1994), which is incorporated herein by reference in its entirety. A recessive mutation on chromosome 14 results in a mouse with wrinkled skin devoid of body hair by age 25 days. At that time, the end of the first hair cycle, the follicular papillae fail to follow the regressing hair follicles and become isolated in the dermis. […] The upper remnants of the hair follicle are filled with sloughed, cornified cells and form utriculi with a small sebaceous gland at their base, resembling an open comedone. The rhino skin becomes progressively loose, forming folds and ridges, due to the expansion of the surface, secondary to abortive hair follicles filling with cornified debris. The utriculi progressively enlarge, forming pilary cists (pseudocomedones), which are dilated follicular infundibula filled with cornified debris.
RHJ/LE Hairless (“Rhino”) male mice, 5-7 weeks of age, were obtained from Jackson Laboratories (Bar Harbor, Me.), and treated as described in Mezick et al., “Topical and Systemic Effects of Retinoids on Horn-Filled Utriculus Size in the Rhino Mouse: A Model to Quantify “Antikeratinizing” Effects of Retinoids,” 83 J. Invest. Dermatol. 110-113 (1984) (“Mezick”), which is incorporated herein by reference in its entirety.
(§1) Rhino mice of Example 1 were topically treated with the trypsin compositions (0.001% (w/v)-1% (w/v)) of Example 2 once daily for five days. Animals were sacrificed at day 8 and image analysis was used to quantify the reduction in utriculi size. For image analysis, whole mount epidermis was processed and microscopic measurements were taken according to the methods described in Mezick as well as Bernerd et al., “The Rhino Mouse Model: The Effects of Topically Applied All-Trans Retinoic Acid and CD271 on the Fine Structure of the Epidermis and Urticuli Wall of Pseudocomedones,” 283(2) Arch. Dermatol. Res. 100-107 (1991) and Bouclier et al., “Quantification of Epidermal Histological Changes Induced by Topical Retinoids and CD271 in the Rhino Mouse Model Using a Standardizing Image Analysis Technique,” 4(2) Skin Pharmacol. 65-73 (1991) which are each incorporated herein by reference in their entirety. Empire Imagins Database version 1.1 was used on a Gateway 2000 P5-100 computer for capturing images. Image Pro Plus version 1.3 was used for measurements and Microsoft Excel version 5.0 for data processing. The mean utriculus diameter (μ) and the mean sebaceous gland size (μ^2) were calculated for each treatment group (3 Rhino mice), using 5 random fields, two measurements per field, per animal. Percent reduction in utriculi diameter was calculated in accordance with the methods described in Finley, D. J., “Parallel Line Assays, Statistical Method in Biological Assay,” Charles Griffen & Company Ltd. 69-104 (1978) which is incorporated herein by reference in its entirety.

Rhino mouse skin [2] = assay: H&E histology of trypsin treated Rhino mouse skin; format: in vivo; conditions: 0.1% (w/v) trypsin in GDL liposomes daily for five days
Rhino mouse skin [3] = assay: Transepidermal water loss (TEWL), evaporimeter on dorsal skin; format: in vivo; conditions: for TEWL: topical once daily for five days
Text: as §1
To further characterize the effect of trypsin on the Rhino mouse skin, we measured the transepidermal water loss (“TEWL”) using an “Evaporimeter EPI” evaporimeter available from Servomed AB by first normalizing the evaporimeter with the ambient humidity and then placing the probe on the dorsal skin of the test subject at which point a reading of TEWL was taken.

Rhino mouse skin [4] = assay: Histology after suboptimal trypsin, all-trans retinoic acid or both; format: in vivo; conditions: suboptimal dose alone: 0.005% (w/v) trypsin or 0.0005% (w/v) all-trans retinoic acid
Experimental: A first set of Rhino mice of Example 1 were treated with suboptimal doses of the trypsin composition of Example 2. […] A second set of Rhino mice of Example 1 were treated with suboptimal concentrations of the all-trans retinoic acid composition of Example 2. A third set of Rhino mice of Example 1 were treated with both suboptimal doses of the trypsin composition of Example 2 and the all-trans retinoic acid composition of Example 2. In this third set of Rhino mice, the trypsin and all-trans retinoic acid treatments were each administered daily, but at different times (i.e. trypsin in the morning and all-trans retinoic acid in the afternoon). Mice were sacrificed and their skins were examined histologically with the procedure set forth in Example 3.

[5] = tested on: hamster ear sebaceous gland; assay: Hamster ear model, sebaceous gland size; format: in vivo, golden Syrian hamsters
Experimental: The possible effect of trypsin on the sebaceous component of acne was evaluated using the hamster ear model system. Young golden Syrian hamsters, 45-55 grams upon arrival, were purchased from Charles River Laboratories (Wilmington, Mass.). The ventral side of the hamsters' right ears were treated daily with 10 μl of the trypsin composition of Example 2, five days a week for three weeks, while the left ears were used as untreated controls.

Rhino mouse skin [6] = assay: Visual irritation (scaling and erythema); format: in vivo; conditions: up to 1% (w/v) trypsin; not dose dependent

B1: trypsin (protein, UniProt P00760 24-246, looked up)
Serine protease 1: IVGGYTCGANTVPYQVSLNSGYHFCGGSLINSQWVVSAAHCYKSGIQVRLGEDNINVVEGNEQFISASKSIVHPSYNSNTLNNDIMLIKLKSAASLNSRVASISLPTSCASAGTQCLISGWGNTKSSGTSYPDVLKCLKAPILSDSSCKSAYPGQITSNMFCAGYLEGGKDSCQGDSGGPVVCSGKLQGIVSWGSGCAQKNKPGVYTKVCNYVSWIKQTIASN
notes: lyophilyzed trypsin from Sigma-Aldrich, a serine protease, in Hepes buffer mixed with GDL liposomes
[1]; Trypsin 0.001% (w/v) in GDL liposomes
  Utriculus Size Reduction (%) vs. Liposome Control: 26.85 ± 4.38%
[1]; Trypsin 0.005% (w/v) in GDL liposomes
  Utriculus Size Reduction (%) vs. Liposome Control: 19.58 ± 3.06%
[1]; Trypsin 0.01% (w/v) in GDL liposomes
  Utriculus Size Reduction (%) vs. Liposome Control: 33.08 ± 2.15%
[1]; Trypsin 0.05% (w/v) in GDL liposomes
  Utriculus Size Reduction (%) vs. Liposome Control: 43.84 ± 0.62%
[1]; Trypsin 0.1% (w/v) in GDL liposomes
  Utriculus Size Reduction (%) vs. Liposome Control: 50.67 ± 0.83%
[1]; Trypsin 0.5% (w/v) in GDL liposomes
  Utriculus Size Reduction (%) vs. Liposome Control: 54.31 ± 1.33%
[1]; Trypsin 1.0% (w/v) in GDL liposomes
  Utriculus Size Reduction (%) vs. Liposome Control: 54.85 ± 1.02%
[1]; further increase in trypsin concentration above ~0.1% (w/v)
  maximal reduction of utriculus size relative to liposomal control: ≤ 55%
[1]; once daily for five days
  trypsin concentration at which reduction in utriculus size reached a plateau: ~0.1 % (w/v)
Rhino mouse skin [2]
  inflammatory cells in skin histology: no inflammatory cells
Rhino mouse skin [2]; vs untreated
  epidermis histology (H&E): hyperplastic with an increase in the number of cell layers
Rhino mouse skin [3]; Trypsin 0.001% (w/v)
  TEWL: 29.53 ± 3.68 g/m^2h
Rhino mouse skin [3]; Trypsin 0.005% (w/v)
  TEWL: 26.40 ± 1.77 g/m^2h
Rhino mouse skin [3]; Trypsin 0.01% (w/v)
  TEWL: 28.53 ± 2.18 g/m^2h
Rhino mouse skin [3]; Trypsin 0.05% (w/v)
  TEWL: 36.57 ± 2.07 g/m^2h
Rhino mouse skin [3]; Trypsin 0.1% (w/v)
  TEWL: 42.80 ± 4.33 g/m^2h
Rhino mouse skin [3]; Trypsin 0.5% (w/v)
  TEWL: 36.23 ± 1.24 g/m^2h
Rhino mouse skin [3]; Trypsin 1.0% (w/v)
  TEWL: 42.00 ± 1.14 g/m^2h
Rhino mouse skin [3]; once daily for five days
  trypsin concentration at which TEWL increase reached a plateau: ~0.05 % (w/v)
Rhino mouse skin [3]; trypsin treated mice
  TEWL compared with retinoid treatment given alone: lower than that for retinoid treatment given alone
Rhino mouse skin [4]
  skin histology of treatment given alone vs untreated skin: marked inprovement
[5]; Trypsin 0.5% (w/v), 10 μl daily on ventral right ear, five days a week for three weeks
  Sebaceous Gland Size: 95043.0 ± 4269.1 μ^2
[5]; Trypsin 0.5% (w/v), vs. liposome vehicle
  Percent Size Decrease (%) of sebaceous gland: −0.36 (vs. liposome %
[5]; hamster ear, daily, five days a week for three weeks
  effect on the size of the sebaceous gland: no effect
Rhino mouse skin [6]
  visual irritation (scaling and erythema): minor scaling and erythema
